The values below come from paper PMC5770238 (Science (New York, N.Y.), 2017).

Read-outs that look alike come from different tables or passages of the source.

Assay in all cases: fluorescence polarisation
Assay [1] addresses T1, Hsp104 N728A (sensor 1 ATPase mutant in NBD2) (S. cerevisiae, UniProt P31539 1-908, N728A).
Assay [2] has as its target T2, Hsp104 T317A (sensor 1 ATPase mutant in NBD1) (S. cerevisiae, UniProt P31539 1-908, T317A).
In assay [3] the target is T3, Hsp104 (S. cerevisiae AAA+ disaggregase), wild type (S. cerevisiae, UniProt P31539 1-908).
T3 sequence (P31539 whole entry): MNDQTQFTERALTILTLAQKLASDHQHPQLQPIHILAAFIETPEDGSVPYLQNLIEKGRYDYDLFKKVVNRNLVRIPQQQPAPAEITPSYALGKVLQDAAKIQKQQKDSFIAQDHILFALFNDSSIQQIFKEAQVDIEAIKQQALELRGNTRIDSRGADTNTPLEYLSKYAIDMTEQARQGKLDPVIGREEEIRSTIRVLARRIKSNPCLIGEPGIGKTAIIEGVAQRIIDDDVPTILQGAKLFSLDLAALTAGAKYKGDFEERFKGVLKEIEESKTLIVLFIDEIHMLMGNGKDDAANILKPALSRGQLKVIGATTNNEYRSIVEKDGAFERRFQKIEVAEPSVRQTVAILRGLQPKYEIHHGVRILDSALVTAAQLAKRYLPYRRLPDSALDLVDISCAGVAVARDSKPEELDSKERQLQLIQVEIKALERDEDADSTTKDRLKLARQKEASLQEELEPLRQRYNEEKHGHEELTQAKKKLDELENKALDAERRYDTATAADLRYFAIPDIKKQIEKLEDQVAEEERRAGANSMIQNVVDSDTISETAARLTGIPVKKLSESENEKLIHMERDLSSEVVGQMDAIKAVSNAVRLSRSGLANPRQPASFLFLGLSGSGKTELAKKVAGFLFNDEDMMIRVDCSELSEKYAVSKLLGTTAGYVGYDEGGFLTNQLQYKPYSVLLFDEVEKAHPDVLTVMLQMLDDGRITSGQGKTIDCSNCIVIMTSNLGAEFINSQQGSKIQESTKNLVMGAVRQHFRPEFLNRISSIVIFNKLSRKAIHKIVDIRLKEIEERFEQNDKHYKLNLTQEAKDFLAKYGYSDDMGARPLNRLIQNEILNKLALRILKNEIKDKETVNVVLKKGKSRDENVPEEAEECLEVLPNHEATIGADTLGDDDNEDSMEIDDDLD
Assay [4] addresses T1, Hsp104 N728A (sensor 1 ATPase mutant in …). This is another data set of the same source.
Assay [5] has as its target T2, Hsp104 T317A (sensor 1 ATPase mutant in …). The source holds these as a separate data set.
In assay [6] the target is T3, Hsp104 (S. cerevisiae AAA+ …). This is another data set of the same source.

T1 sequence (P31539 whole entry N728A): as the sequence (P31539 whole entry) above, with N728A counted along it
T2 sequence (P31539 whole entry T317A): as the sequence (P31539 whole entry) above, with T317A counted along it

B1: FITC-labeled casein (natural protein)
chain: RPKHPIKHQGLPQEVLNENLLRFFVAPFPEVFGKEKVNELSKDIGSESTEDQAMEDIKQMEAESISSSEEIVPNSVEQKHIQKEDVPSERYLGYLEQLLRLKKYKVPQLEIVPNSAEERLHSMKEGIHAQQKEPMIGVNQELAYFYPELFRQFYQLDAYPSGAWYYVPLGTQYTDAPSFSDIPNPIGSENSEKTTMPLW
modifications: FITC label (site not stated)
For orientation: Kd means the free concentration of one partner at which half of the binding sites on the other are occupied at equilibrium, for simple one-to-one binding. With B1, the dissociation constant Kd in assay [1] is roughly 33 nM; in assay [2], greater than 2000 nM; in assay [3], greater than 2000 nM; in assay [4] it was 16 to 20 nM; in assay [5], roughly 1400 nM; in assay [6], roughly 20 nM.
